For two substances, surviving K562 target cells results are on record in patent publication US20250170182A1.

Experiment [1] has as its target human wild type CD123 (human) (UniProt P26951). In words: cell-based or functional assay.
For experiment [2], the target named is human wild type FLT3 (human) (UniProt P36888). The experiment can be described thus: cell-based or functional assay.

Sequence of UniProt P26951 (P26951 19-378 limits assumed): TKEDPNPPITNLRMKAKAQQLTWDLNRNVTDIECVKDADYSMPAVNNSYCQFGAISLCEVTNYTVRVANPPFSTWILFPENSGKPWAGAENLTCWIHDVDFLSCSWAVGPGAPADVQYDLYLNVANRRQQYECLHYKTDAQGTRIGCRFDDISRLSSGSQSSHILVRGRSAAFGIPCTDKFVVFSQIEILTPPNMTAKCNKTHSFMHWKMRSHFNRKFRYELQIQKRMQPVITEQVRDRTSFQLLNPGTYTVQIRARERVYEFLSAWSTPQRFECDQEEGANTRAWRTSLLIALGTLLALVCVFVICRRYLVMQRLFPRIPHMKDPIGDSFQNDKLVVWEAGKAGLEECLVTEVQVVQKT

In experiment [1], “CSL362-CAR (CD8a hinge, CD28 TM, CD28z, CD3z) targeting CD123 N-terminal domain” gave a surviving K562 target cells at E:T=10 relative to E:T=0 below 2%.
With “4G8-CAR (IgG4 hinge, CD28 TM, CD28z, CD3z) targeting FLT3 domain 4”, in experiment [2], the surviving K562 target cells at E:T=10 relative to E:T=0 is below 2%.
